Where a chain is given by its changes, count along the chain named.
B1: MS-Roche #7.2.H6 Fab (Fab, V domains shown)
VH: QVQLVESGGGLVQPGGSLRLSCAASGFTFSSYAMSWVRQAPGKGLEWVSAINARGNRTYYADSVKGRFTISRDNSKNTLYLQMNSLRAEDTAVYYCARGKGNTHKPYGYVRYFDVWGQGTLVTVSS
VL: DIVLTQSPATLSLSPGERATLSCRASQSVSSSYLAWYQQKPGQAPRLLIYGASSRATGVPARFSGSGSGTDFTLTISSLEPEDFATYYCQQIYSFPHTFGQGTKVEIKR
B2: MS-Roche #7.9.H5 Fab (Fab, V domains shown)
VH: B1 VH with A53H, R54A, R57K, T58K
VL: B1 VL with Q90L, S94N, F95M, H97I
notes: assembled
B3: MS-Roche #7.9.H7 Fab (Fab, V domains shown)
VH: B1 VH with R54S, N56T
VL: B1 VL with Q90L, S94N, F95M, H97I
notes: also called MSR 7.9H7
B4: MS-Roche #7.2.L2 Fab (Fab, V domains shown)
VH: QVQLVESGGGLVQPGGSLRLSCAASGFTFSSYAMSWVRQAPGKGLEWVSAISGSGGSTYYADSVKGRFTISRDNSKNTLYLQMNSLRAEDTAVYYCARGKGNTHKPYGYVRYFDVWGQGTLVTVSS
VL: B1 VL with S28Y, V29I, S31F, S32R
B5: MS-Roche #7.2.H7 Fab (Fab, V domains shown)
VH: B1 VH with A53S, N56S, R57D, Y59H
VL: B1 VL
B6: MS-Roche #7.2.H8 Fab (Fab, V domains shown)
VH: B1 VH with R54S, N56H, R57K
VL: B1 VL
B7: MS-Roche #7.9.H9 Fab (Fab, V domains shown)
VH: B1 VH with A53G, R54K, R57K, T58K
VL: B1 VL with Q90L, S94N, F95M, H97I
notes: assembled
B8: MS-Roche #7.3.H1 Fab (Fab, V domains shown)
VH: B1 VH with N52S, R54I, G55S, R57K
VL: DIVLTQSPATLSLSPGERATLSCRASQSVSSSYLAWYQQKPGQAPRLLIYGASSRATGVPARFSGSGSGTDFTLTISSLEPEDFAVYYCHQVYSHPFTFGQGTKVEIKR
B9: MS-Roche #7.11.H3 Fab (Fab, V domains shown)
VH: B1 VH with A50G, R54N
VL: B1 VL with I92V, F95P
B10: MS-Roche #7.9.L2 Fab (Fab, V domains shown)
VH: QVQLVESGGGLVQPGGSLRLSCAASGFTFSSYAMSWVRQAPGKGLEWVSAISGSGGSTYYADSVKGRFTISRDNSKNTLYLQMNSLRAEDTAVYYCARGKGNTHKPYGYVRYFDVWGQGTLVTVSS
VL: B1 VL with S28Y, V29L, S30H, S31K, S32R, Q90L, S94N, F95M, H97I
B11: MS-Roche #7.3.L1 Fab (Fab, V domains shown)
VH: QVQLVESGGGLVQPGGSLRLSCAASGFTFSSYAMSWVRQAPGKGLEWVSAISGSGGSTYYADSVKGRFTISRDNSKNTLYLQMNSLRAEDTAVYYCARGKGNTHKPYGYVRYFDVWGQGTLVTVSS
VL: B1 VL with S28Y, V29L, S30H, S31Y, S32G, T86V, Q90H, I92V, F95H, H97F
B12: MS-Roche #7.9.L1 Fab (Fab, V domains shown)
VH: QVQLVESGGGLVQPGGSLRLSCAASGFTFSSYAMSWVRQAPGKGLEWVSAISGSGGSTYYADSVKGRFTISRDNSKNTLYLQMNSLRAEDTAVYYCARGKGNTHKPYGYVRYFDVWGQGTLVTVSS
VL: B1 VL with S28R, V29L, S31P, S32R, Q90L, S94N, F95M, H97I
B13: MS-Roche #7.9.H8 Fab (Fab, V domains shown)
VH: B1 VH with R54S, N56S, R57K, T58I
VL: B1 VL with Q90L, S94N, F95M, H97I
notes: assembled
B14: MS-Roche #7.2.L4 Fab (Fab, V domains shown)
VH: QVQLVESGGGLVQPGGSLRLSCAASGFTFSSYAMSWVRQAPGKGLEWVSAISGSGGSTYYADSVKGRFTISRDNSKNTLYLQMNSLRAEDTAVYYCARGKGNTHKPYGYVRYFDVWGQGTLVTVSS
VL: B1 VL with S28F, V29I, S30R, S31R
B15: MS-Roche #7.11.H4 Fab (Fab, V domains shown)
VH: B1 VH with R54N, N56Y, R57K
VL: B1 VL with I92V, F95P

Each binder was assayed against T1, human Aβ (1-40) peptide (human) (assay: SPR, immobilized fibers;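 note: biacore SPR using in vitro grown Aβ1-40 or Aβ1-42 fibrils immobilized on the chip with Fab analytes, KD from koff/kon fits or equilibrium isotherms based on total Fab concentration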).
T1 construct: also called Aβ1-40 fibers
Description: (§1) Biacore2000 and Biacore3000 instruments were used for these measurements. Aβ1-40 and Aβ1-42 fibers were generated in vitro by incubation of synthetic peptides at a concentration of 200 μg/ml in 10 mM Na-acetate buffer (pH 4.0) for three days at 37° C. […] For binders with slow kinetics KD values were calculated by curve fitting of the time-dependent sensor responses, i.e. from the ratio of koff/kₒₙ. Binders with fast kinetics were analyzed by fitting the concentration-dependent sensor responses at equilibrium (adsorption-isotherms). KD values were calculated from the Biacore sensograms based on the total Fab concentration as determined by a protein assay. […] Briefly, time-dependent protein binding to Aβ1-40 fibers immobilized on the Biacore chip was measured during the association phase under mass-limited conditions at different flow rates of the analyte solution.

Row | Binder | Kd [nM]
1 | B1 | 1
2 | B2 | 1.7
3 | B3 | 1
4 | B4 | 5.6
5 | B5 | 15.5
6 | B6 | 1.5
7 | B7 | 0.9
8 | B8 | 8
9 | B9 | 6.6
10 | B10 | 1
11 | B11 | 4.5
12 | B12 | 1
13 | B13 | 0.8
14 | B14 | 1.1
15 | B15 | 1

What follows are binders tested against T2, Aβ (1-42) peptide (human) (assay: SPR, immobilized fibers;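 note: biacore SPR using in vitro grown Aβ1-40 or Aβ1-42 fibrils immobilized on the chip with Fab analytes, KD from koff/kon fits or equilibrium isotherms based on total Fab concentration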).
T2 construct: also called Aβ1-42 fibers; Aβ4
Description: as §1

Row | Binder | Kd [nM]
16 | B2 | 1.8
17 | B3 | 0.9
18 | B4 | 4
19 | B5 | 8.1
20 | B6 | 2.1
21 | B7 | 0.9
22 | B8 | 11.2
23 | B9 | 4.4
24 | B10 | 0.5
25 | B11 | 6
26 | B12 | 1.1
27 | B13 | 0.7
28 | B14 | 1.1
29 | B15 | 1.7

Reference: patent publication US20100172907A1 (Hoffmann-La Roche, published 2010)
